{"source": "patent US20210128616A1", "target": "CD19 (UniProt P15391)", "sequence (P15391 20-291 limits assumed)": "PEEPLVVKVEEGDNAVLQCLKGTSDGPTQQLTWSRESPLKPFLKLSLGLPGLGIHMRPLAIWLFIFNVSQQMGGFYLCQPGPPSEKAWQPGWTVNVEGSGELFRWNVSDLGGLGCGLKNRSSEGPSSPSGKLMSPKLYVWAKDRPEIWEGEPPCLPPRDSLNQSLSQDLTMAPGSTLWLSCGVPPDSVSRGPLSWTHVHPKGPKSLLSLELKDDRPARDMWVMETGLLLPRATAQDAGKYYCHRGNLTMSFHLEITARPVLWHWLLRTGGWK", "experiment": "cell-based or functional assay"}
{"substance": "anti-CD19 chimeric antigen receptor (CAR) with an anti-CD19 scFv derived from murine antibody FMC63 (VL-linker-VH orientation), an immunoglobulin-derived spacer, a CD28-derived transmembrane domain, a 4-1BB costimulatory region and a CD3-zeta intracellular signaling domain", "values": [{"measurement": "relative standard deviation among lots of a parameter indicative of TNFα production by CD4+ CAR+ T cells after stimulation with CD19", "value": 37, "unit": "%"}, {"measurement": "relative standard deviation among lots of a parameter indicative of TNFα production by CD8+ CAR+ T cells after stimulation with CD19", "value": 51, "unit": "%"}]}
